Laboratory results: patent US20250108091A1, “PROTEIN FORMULATION, PREPARATION METHOD THEREFOR AND USE THEREOF” (BEIJING LIANGYUAN BIO-SCIENCE, LLC, priority 2022, published 2025)

Legend:
IL-2 protein = target: T1, IL-2 protein (Homo sapiens, UniProt P60568, C145S); test: Isothermal titration calorimetry (ITC), interaction with IL-2; type: binding; details: SDS with IL-2, 7.69 mM sodium phosphate buffer, 25° C.; read-out: equilibrium dissociation constant Kd
T1 construct: made in house; host or cells: Escherichia coli
T1 sequence (P60568 21-153 C145S): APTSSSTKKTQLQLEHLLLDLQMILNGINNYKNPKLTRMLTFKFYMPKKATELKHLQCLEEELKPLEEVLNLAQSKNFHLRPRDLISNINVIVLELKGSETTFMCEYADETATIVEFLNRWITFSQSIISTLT
Method: (1) Preparation of samples: • A. PEG2000-DSPE solution: dissolved in 10 mM sodium acetate buffer (pH=5.5), with a concentration of 0.5 mM; • B. SDS solution: dissolved in 7.69 mM sodium phosphate buffer (pH=7.6), with a concentration of 1.73 mM; • C. IL-2 solution: dissolved in 10 mM sodium acetate buffer (pH=5.5), with a concentration of 0.005 mM; • D. IL-2 solution: dissolved in 7.69 mM sodium phosphate buffer (pH=7.0), with a concentration of 0.0164 mM.
10 The MicroCal ITC 200 isothermal titration calorimeter and its supporting operating software from Malvern Panalytical Company were used. Refer to the table below for specific parameter settings:
(3) To determine the interaction between PEG2000-PE and IL-2, 40 μl sample A was added to the syringe, and 250 μl sample C was added to the sample cell. To determine the interaction between SDS and IL-2, 40 μl sample B was added to the syringe, and 250 μl sample D was added to the cell. […] After the reaction was completed, the measured heat change was integrated and subjected to reaction curve fitting (FIG. 4) to calculate various parameters of the interaction between the two samples, wherein the K value measured in the ITC is the binding constant, with a unit of M-1, and its reciprocal is the dissociation constant Kd of the two substances, with a unit of M. The smaller the Kd value, the stronger the affinity between the two substances.

[1] = in serum in vivo; cited from earlier work
βγ dimer = target: T2, βγ dimer (Homo sapiens, UniProt P14784+P31785); details: medium affinity; cited from earlier work
T2 sequence (P14784 27-551): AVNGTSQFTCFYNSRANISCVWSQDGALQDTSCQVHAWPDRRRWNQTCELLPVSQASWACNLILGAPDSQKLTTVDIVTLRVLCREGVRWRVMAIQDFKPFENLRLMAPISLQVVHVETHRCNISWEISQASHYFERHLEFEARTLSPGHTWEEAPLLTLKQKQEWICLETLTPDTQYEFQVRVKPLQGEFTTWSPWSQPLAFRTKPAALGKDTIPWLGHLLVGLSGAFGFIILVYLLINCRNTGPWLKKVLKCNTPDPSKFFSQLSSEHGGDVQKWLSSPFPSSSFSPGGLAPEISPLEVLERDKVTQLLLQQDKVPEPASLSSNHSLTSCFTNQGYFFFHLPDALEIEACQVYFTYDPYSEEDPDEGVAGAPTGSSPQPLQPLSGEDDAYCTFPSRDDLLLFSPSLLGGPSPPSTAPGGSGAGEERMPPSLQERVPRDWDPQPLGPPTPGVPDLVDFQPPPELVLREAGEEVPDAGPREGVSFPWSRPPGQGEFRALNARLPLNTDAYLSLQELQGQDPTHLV
T2 sequence (P31785 23-369): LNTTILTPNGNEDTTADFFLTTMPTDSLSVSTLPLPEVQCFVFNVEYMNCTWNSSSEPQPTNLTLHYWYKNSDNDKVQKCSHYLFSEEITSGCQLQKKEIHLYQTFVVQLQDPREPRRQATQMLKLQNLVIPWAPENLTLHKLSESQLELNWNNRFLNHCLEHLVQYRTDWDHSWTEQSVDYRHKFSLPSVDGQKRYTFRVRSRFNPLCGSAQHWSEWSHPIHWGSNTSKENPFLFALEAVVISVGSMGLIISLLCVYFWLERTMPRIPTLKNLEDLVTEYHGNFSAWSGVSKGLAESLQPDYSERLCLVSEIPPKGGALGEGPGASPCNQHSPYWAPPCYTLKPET

Compound	Kd (IL-2 protein)	half-life [1]	Kd (βγ dimer)
CCCCCCCCCCCCOS(=O)(=O)[O-].[Na+] [SDS, sodium dodecyl sulfate]	~37.3 µM	–	–
IL2: T cell growth factor, glycoprotein of four α-helices, molecular weight 15.5 Kd	–	10 to 85 min	~0.001 µM
